Here are results for two molecules from publication PMC9784018, “Rational Strategy for Designing Peptidomimetic Small Molecules Based on Cyclic Peptides Targeting Protein–Protein Interaction between CTLA-4 and B7-1” (Pharmaceuticals, 2022).

Assay [1] concerns the target CTLA-4 (coated for ELISA), P16410. In words: ELISA. The settings on record: chain shown with the change; CTLA-4 coated at 5 μg/mL on the ELISA plate. (In general: An ELISA detects its analyte on a solid surface through an enzyme-linked reagent.)
Assay [2] has as its target CTLA-4 of the CTLA-4:B7-1[Biotinylated] Inhibitor Screening Assay kit (UniProt P16410). Nature of the assay: ELISA; CTLA-4:B7-1[Biotinylated] Inhibitor Screening Assay kit (BPS Bioscience) with the MBP–peptide–His-tag fusion protein; data not shown.
Assay [3] has as its target CTLA-4 (coated for ELISA) (UniProt P16410). In words: ELISA; CTLA-4 (5 μg/mL) coated on 384-well plate; purified MBP–peptide–His-tag fusion in 15-point two-fold dilution from 14 μM to 0.85 nM in PBS with 0.5% BSA, 1 h; detected with anti-FLAG M2 peroxidase antibody; EC50 = midpoint concentration.

Chain of CTLA-4 (coated for ELISA), P16410 (P16410 36-161): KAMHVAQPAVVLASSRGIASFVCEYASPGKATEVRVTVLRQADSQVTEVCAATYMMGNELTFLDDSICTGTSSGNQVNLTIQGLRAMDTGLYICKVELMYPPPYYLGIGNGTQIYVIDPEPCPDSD

B1: MBP–C4-302–His-tag fusion protein M1L; L6P; V7I; G(+2)R (peptide)
chain: CLHPFLPIVSHHFCGR
One may read the EC50 as the concentration that produces a half-maximal response. For the molecule B1, the concentration giving a half-maximal response (EC50) in assay [1] was determined as 81.8 nM.

B2: MBP–C4m-3127 peptide–His-tag fusion protein (peptide)
chain: CMHPFLPIVSHHFCER
Broadly, the IC50 is the concentration at which inhibition is half-maximal. High values mean lower potency, low ones higher potency. In assay [2], B2 displayed an IC50 of 1360 nM. This molecule also showed a concentration for a half-maximal effect (EC50) in assay [3] of 74.7 nM.
